Experimental data from patent US9211312 (VOLUTION IMMUNO PHARMACEUTICALS, dated 2015).

Tests used:
[1] = target: rat complement C5 (in rat serum) (rat, UniProt P08650 19-1681); test: cell-based or functional assay
[2] = target: human complement C5 (in human serum) (human, UniProt P01031 19-1676); test: cell-based or functional assay
[3] = target: mouse complement C5 (in mouse serum) (mouse, UniProt P06684 19-1680); test: cell-based or functional assay
[4] = target: T1, complement C5 (Homo sapiens (Human), UniProt P01031 19-673; P01031 678-1676, The beta and alpha chains of native C5 are linked by a disulfide bond. The native protein is glycosylated.); test: direct binding to C5 (FIG. 4C); method not described
T1 construct: also called complement protein C5
T1 sequence (P01031 19-673 limits assumed, form in doubt, chain 1 of 2): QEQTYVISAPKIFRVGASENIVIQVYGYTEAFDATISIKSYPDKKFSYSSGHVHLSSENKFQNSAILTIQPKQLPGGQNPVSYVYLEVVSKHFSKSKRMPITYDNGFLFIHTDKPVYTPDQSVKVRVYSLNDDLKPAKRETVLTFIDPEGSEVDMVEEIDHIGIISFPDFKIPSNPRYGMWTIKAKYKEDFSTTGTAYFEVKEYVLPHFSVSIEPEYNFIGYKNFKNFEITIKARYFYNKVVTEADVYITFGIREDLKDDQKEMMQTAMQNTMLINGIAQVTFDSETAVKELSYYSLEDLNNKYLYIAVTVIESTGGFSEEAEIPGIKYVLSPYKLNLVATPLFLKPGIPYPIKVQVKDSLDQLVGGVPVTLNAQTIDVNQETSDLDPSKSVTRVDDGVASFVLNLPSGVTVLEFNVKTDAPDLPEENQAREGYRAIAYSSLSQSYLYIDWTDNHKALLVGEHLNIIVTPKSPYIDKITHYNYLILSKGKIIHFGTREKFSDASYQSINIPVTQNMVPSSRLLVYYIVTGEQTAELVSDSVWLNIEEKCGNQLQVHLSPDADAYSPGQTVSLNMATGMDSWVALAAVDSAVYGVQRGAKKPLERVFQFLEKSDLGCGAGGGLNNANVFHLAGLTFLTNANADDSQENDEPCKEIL
T1 sequence (P01031 678-1676 limits assumed, form in doubt, chain 2 of 2): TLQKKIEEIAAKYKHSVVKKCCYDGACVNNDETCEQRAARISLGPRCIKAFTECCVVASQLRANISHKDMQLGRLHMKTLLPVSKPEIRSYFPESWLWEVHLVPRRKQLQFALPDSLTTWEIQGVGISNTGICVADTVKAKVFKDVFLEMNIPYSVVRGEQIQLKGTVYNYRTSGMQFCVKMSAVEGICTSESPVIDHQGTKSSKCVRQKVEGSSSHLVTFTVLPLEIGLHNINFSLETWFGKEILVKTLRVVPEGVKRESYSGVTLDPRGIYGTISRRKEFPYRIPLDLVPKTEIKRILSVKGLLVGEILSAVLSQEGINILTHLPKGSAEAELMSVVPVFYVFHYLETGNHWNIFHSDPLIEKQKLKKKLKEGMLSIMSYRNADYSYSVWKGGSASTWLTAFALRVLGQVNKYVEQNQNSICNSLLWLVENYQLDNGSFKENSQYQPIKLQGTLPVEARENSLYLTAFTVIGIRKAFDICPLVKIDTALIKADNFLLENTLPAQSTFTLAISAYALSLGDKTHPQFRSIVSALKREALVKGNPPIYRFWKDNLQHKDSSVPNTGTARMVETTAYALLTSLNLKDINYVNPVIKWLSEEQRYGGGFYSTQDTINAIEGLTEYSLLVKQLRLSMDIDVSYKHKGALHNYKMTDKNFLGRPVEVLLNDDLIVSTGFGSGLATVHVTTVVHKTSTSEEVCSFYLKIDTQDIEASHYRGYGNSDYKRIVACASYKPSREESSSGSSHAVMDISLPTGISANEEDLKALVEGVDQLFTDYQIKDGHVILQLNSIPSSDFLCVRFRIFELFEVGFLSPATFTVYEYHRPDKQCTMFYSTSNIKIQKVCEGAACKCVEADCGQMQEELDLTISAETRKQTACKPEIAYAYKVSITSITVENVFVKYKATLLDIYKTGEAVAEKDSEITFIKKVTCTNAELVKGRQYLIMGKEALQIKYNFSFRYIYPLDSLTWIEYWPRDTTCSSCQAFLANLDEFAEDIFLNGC

human complement C5 (in human serum), sequence (P01031 19-1676 limits assumed): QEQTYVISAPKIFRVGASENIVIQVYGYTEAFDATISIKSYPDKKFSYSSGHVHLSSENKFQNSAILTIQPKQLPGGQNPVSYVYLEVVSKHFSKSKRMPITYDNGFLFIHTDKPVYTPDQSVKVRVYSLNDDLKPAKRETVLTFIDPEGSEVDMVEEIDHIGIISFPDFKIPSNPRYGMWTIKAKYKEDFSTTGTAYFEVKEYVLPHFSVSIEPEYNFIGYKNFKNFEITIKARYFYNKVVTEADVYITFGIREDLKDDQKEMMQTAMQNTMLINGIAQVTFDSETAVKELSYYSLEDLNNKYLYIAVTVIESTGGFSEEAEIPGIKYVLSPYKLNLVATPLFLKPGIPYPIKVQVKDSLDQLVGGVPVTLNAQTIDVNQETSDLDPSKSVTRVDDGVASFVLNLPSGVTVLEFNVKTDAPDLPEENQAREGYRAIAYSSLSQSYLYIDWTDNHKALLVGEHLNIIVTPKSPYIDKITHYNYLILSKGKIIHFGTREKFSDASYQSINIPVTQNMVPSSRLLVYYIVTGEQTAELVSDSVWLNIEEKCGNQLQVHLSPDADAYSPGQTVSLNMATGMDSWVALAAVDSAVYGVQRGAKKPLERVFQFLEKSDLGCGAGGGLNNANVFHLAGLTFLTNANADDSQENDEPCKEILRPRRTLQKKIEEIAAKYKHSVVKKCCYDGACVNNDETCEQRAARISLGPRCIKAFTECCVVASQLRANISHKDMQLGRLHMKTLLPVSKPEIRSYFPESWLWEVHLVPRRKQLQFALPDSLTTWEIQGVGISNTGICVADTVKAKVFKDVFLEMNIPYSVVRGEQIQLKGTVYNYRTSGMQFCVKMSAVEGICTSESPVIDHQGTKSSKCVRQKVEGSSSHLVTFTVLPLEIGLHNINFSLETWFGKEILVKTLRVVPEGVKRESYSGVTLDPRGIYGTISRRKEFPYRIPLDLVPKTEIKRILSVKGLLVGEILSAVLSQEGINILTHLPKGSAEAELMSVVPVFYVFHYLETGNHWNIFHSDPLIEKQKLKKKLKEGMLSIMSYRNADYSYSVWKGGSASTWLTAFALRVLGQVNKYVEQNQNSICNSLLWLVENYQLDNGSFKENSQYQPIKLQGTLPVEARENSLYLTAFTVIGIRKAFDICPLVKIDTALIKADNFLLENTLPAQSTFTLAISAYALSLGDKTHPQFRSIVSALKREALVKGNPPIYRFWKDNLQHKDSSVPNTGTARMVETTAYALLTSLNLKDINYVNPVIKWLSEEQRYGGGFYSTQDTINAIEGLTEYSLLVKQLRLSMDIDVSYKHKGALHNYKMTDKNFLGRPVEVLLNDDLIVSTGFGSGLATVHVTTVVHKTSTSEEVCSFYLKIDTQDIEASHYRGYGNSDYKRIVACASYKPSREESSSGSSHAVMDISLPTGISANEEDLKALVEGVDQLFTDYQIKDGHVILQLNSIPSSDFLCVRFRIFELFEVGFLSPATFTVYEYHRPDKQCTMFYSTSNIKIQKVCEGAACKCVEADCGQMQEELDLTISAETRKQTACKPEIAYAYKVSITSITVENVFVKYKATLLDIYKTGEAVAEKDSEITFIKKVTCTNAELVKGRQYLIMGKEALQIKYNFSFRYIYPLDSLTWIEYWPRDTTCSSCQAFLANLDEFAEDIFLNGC
mouse complement C5 (in mouse serum), sequence (P06684 19-1680 limits assumed): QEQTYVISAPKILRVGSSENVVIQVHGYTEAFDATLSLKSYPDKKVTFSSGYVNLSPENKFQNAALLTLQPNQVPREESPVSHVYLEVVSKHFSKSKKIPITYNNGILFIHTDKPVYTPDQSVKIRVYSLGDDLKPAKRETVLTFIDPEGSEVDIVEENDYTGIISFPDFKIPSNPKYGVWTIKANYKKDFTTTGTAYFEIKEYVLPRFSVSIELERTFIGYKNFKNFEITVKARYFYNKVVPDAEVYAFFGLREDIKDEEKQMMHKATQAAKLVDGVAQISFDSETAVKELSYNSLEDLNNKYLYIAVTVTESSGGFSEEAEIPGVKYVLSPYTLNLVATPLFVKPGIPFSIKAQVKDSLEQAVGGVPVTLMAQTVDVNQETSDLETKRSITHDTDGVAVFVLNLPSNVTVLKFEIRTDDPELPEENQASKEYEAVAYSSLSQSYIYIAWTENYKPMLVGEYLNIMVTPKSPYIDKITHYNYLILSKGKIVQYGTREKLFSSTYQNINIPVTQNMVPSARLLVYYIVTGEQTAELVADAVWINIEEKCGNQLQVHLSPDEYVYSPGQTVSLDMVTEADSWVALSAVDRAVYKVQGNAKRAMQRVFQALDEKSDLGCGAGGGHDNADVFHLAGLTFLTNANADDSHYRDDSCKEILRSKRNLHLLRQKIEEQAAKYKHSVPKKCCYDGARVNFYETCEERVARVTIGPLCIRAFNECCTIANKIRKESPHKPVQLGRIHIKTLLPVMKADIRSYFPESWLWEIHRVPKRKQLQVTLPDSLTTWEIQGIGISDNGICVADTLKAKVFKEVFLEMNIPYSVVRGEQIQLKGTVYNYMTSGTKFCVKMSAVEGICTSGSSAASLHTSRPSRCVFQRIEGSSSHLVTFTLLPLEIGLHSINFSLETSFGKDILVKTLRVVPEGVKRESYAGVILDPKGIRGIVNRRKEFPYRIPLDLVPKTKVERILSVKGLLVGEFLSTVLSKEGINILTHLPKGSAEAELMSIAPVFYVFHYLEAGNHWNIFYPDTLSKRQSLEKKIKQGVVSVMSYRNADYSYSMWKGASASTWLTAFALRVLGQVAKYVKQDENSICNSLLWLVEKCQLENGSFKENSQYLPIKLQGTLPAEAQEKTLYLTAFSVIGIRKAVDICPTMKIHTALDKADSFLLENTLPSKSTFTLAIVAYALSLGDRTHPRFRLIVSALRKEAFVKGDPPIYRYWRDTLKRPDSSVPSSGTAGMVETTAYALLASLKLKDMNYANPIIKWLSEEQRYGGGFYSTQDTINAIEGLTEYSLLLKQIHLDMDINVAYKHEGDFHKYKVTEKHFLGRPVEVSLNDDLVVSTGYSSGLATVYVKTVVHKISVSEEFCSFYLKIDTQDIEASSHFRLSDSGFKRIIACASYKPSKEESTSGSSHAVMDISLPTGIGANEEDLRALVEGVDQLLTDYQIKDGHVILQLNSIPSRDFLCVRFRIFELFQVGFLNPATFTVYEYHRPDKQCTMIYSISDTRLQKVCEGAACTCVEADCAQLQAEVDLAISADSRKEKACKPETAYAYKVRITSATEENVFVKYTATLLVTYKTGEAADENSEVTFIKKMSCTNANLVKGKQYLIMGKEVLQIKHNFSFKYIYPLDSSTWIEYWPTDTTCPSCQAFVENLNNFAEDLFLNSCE

B1: EV576 protein, native, purified from salivary gland extracts of the soft tick Ornithodoros moubata (other)
chain: DSESDCTGSEPVDAFQAFSEGKEAYVLVRSTDPKARDCLKGEPAGEKQDNTLPVMMTFKNGTDWASTDWTFTLDGAKVTATLGNLTQNREVVYDSQSHHCHVDKVEKEVPDYEMWMLDAGGLEVEVECCRQKLEELASGRNQMYPHLKDC
~20 µg/mL: IC50, binding of C5 and prevention of its cleavage by C5 convertase in serum [1] | IC50, binding of C5 and prevention of its cleavage by C5 convertase in serum [2] | IC50, binding of C5 and prevention of its cleavage by C5 convertase in serum [3] | IC50 [4]
